Experimental data reported in paper PMC10055539 (Research Square, 2023).
Substitutions are numbered along the chain they refer to. In names and notes the source's numbering stands. Ends that are not written are not given here. * marks the point of attachment. Cbz = O=C(OCc1ccccc1)*

B1: Thermoplasma acidophilum 20S proteasome β subunit (natural protein, T. acidophilum, UniProt P28061 9-211, looked up)
chain: TTTVGITLKDAVIMATERRVTMENFIMHKNGKKLFQIDTYTGMTIAGLVGDAQVLVRYMKAELELYRLQRRVNMPIEAVATLLSNMLNQVKYMPYMVQLLVGGIDTAPHVFSIDAAGGSVEDIYASTGSGSPFVYGVLESQYSEKMTVDEGVDLVIRAISAAKQRDSASGGMIDVAVITRKDGYVQLPTDQIESRIRKLGLIL
notes: proteasome subunit beta of the Thermoplasma acidophilum 20S proteasome; Single subunit of m1, written for the subunit-subunit rows of the structures; also called T20S β subunit; source: part of the purified T20S (purified as described [42], via 8XHis tags on the C-terminus of β subunit)
B2: Thermoplasma acidophilum 20S proteasome α subunit, wild type (natural protein, T. acidophilum)
chain: MQQGQMAYDRAITVFSPDGRLFQVEYAREAVKKGSTALGMKFANGVLLISDKKVRSRLIEQNSIEKIQLIDDYVAAVTSGLVADARVLVDFARISAQQEKVTYGSLVNIENLVKRVADQMQQYTQYGGVRPYGVSLIFAGIDQIGPRLFDCDPAGTINEYKATAIGSGKDAVVSFLEREYKENLPEKEAVTLGIKALKSSLEEGEELKAPEIASITVGNKYRIYDQEEVKKFL
notes: proteasome subunit alpha of the Thermoplasma acidophilum 20S proteasome; Single subunit of m1, written for the subunit-subunit rows of the structures; also called T20S α subunit; source: part of the purified T20S (purified as described [42], via 8XHis tags on the C-terminus of β subunit)
B3: Thermoplasma acidophilum 20S proteasome α subunit with the L81Y mutation (natural protein, T. acidophilum)
chain: B2 chain with L81Y
notes: proteasome subunit alpha of the Thermoplasma acidophilum 20S proteasome, L81Y; Subunit of the T20S-αL81Y proteasome whose cryo-EM structure is solved here; also called T20S-αL81Y α subunit; source: part of the purified T20S-αL81Y (overlapping PCR site-directed mutagenesis; purified via 8XHis tags on the C-terminus of β subunit)

What was measured:
[1] = biological target: Thermoplasma acidophilum wild type 20S proteasome (T. acidophilum) (UniProt P25156)
[2] = biological target: B2; assay: cryo-EM structure; 0.5 mg/mL WT T20S in 50mM Tris pH 7.4, 150mM NaCl; Titan Krios; homogeneous refinement with D7 symmetry; closed gate; settings: both partners purified
[3] = biological target: the molecule itself; assay: cryo-EM structure; 0.5 mg/mL T20S-αL81Y in 50mM Tris pH 7.4, 150mM NaCl; Titan Krios; homogeneous refinement with D7 symmetry; partially open gate
[4] = biological target: B3; assay: as above; settings: both partners purified
[5] = biological target: the molecule itself; assay: cryo-EM structure; 0.5 mg/mL WT T20S in 50mM Tris pH 7.4, 150mM NaCl; Titan Krios; homogeneous refinement with D7 symmetry; closed gate
[6] = biological target: Mammalian 20S proteasome isolated from bovine liver (bovine (isolated from bovine liver), UniProt Q2YDE4 1-246; Q3T0Y5 1-234; Q3ZCK9 1-261; Q3ZBG0 1-248; Q5E987 1-241; Q3T0X5 …); assay: cell-based or functional assay
[7] = biological target: Thermoplasma acidophilum wild type 20S proteasome (T. acidophilum) (UniProt P25156); remark: listed apart in the source

N-acetylated PAN C-terminus peptide, three residues (Ac-LYR)
LFP hydrolysis (rfu/min) by 7nM WT T20S with N-terminally acetylated peptide (200 μM), relative to DMSO; gate opening [1]: 2 fold

B1
binding result [2]: binds | binding result [3]: binds | binding result [4]: binds

B2
binding result [5]: binds

B3
binding result [3]: binds

Ac-LDVLYR [N-acetylated PAN C-terminus peptide, six residues]
LFP hydrolysis (rfu/min) by 7nM WT T20S with N-terminally acetylated peptide (200 μM), relative to DMSO; gate opening [1]: > 10 fold

Cbz-Tyr-Ala [Z-Tyr-Ala (carboxybenzyl-tyrosine-alanine), HbYX-like dipeptide mimetic]
nLPnLD-AMC hydrolysis by mammalian 20S (0.5 nM), dose response of ZYA, normalized to DMSO: activation at saturation [6]: ~50 fold | LFP hydrolysis (rfu/min) by 7nM WT T20S with ZYA (2.5mM), normalized to DMSO; gate opening [7]: 13 fold
